Measured values reported in US7189689.

T1: lecithin:cholesterol acyltransferase (LCAT), purified from human plasma (human, UniProt P04180 25-440)
T1 sequence (looked up): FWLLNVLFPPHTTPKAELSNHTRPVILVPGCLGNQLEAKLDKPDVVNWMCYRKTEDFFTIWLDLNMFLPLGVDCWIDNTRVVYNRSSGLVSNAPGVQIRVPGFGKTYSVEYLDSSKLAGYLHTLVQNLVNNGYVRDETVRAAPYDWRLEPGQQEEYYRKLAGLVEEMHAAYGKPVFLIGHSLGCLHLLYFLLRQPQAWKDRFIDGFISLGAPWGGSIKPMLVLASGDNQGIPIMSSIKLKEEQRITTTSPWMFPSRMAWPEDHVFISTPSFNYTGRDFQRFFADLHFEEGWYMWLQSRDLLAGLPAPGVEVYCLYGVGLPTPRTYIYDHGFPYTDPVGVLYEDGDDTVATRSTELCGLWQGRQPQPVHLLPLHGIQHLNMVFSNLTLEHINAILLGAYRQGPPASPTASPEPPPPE


Each binder was assayed against T1, lecithin:cholesterol acyltransferase … (assay: cell-based or functional assay).

| Binder | ACTIVITY (%) LCAT |
| --- | --- |
| DWLKAFYDKVFEKFKEFF [peptide 241] | 8% |
| DWFKAFYDKVFEKFKEFF [peptide 237] | 11% |
| EWLKAEYEKVLEKLKELF [peptide 246] | 4% |
| DWFKAFYDKFFEKFKEFF [peptide 243] | 5% |

More lines, now with the values ahead:

| ACTIVITY (%) LCAT | Binder |
| --- | --- |
| 7% | EWLEAFYKKVLEKLKELF [peptide 242] |
| 3% | EWLKAFYKKVLEKLKELF [peptide 247] |
| 5% | EWLKAFYEKVLEKLKELF [peptide 244] |
| 4% | EWLKAEYEKVEEKLKELF [peptide 245] |
